Experimental data reported in US10155934B2, “Cytochrome P450 polypeptide with increased enzyme activity” (SANOFI, priority 2014, dated 2018).
Positions count from the first letter of the chain named. Numbers in names are those of the source.

B1: SA1: CYP11A1 comprising a threonine at position 225 and an aspartic acid at position 289 (protein)
chain: ISTKTPRPYSEIPSPGDNGWLNLYHFWREKGSQRIHFRHIENFQKYGPIYREKLGNLESVYIIHPEDVAHLFKFEGSYPERYDIPPWLAYHRYYQKPIGVLFKKSGTWKKDRVVLNTEVMAPEAIKNFIPLLNPVSQDFVSLLHKRIKQQGSGKFVGDIKEDLFHFAFESITNVMFGERLGMLEETVNPEAQKFIDAVYKMFHTSVPLLNVPPELYRLFRTKTWTDHVAAWDTIFNKAEKYTEIFYQDLRRKTEFRNYPGILYCLLKSEKMLLEDVKANITEMLAGGVDTTSMTLQWHLYEMARSLNVQEMLREEVLNARRQAEGDISKMLQMVPLLKASIKETLRLHPISVTLQRYPESDLVLQDYLIPAKTLVQVAIYAMGRDPAFFSSPDKFDPTRWLSKDKDLIHFRNLGFGWGVRQCVGRRIAELEMTLFLIHILENFKVEMQHIGDVDTIFNLILTPDKPIFLVFRPFNQDPPQA
modifications: Mutated amino acid sequence of CYP11A1
B2: SA4: WT Bos taurus CYP11A1, mature form, wild-type control (protein, listed as Bos taurus)
chain: B1 chain with T225R, D289N
B3: SA6: P450scc-I1A-K193E polypeptide, control (protein)
chain: B1 chain with I1A, K154E, T225R, D289N
modifications: Mutated amino acid sequence of CYP11A1
notes: P450scc-I1A-K193E polypeptide, control

Key:
cholesterol [1] = test: In vitro conversion assay of cholesterol by purified CYP11A1 variants with Adx and AdR; assay type: biochemical; conditions: 20 μM cholesterol, saturating Adx and AdR; for activity, SA4 compared with SA6 (in vitro conversion of cholesterol): 1 μM enzyme
Procedure: For in vitro enzyme assays, 150 mM of HEPES buffer, adjusted to pH 7.4, containing 0.05% Tween-20 and 1 mM MgCl2, were applied as reaction buffer. 1 unit of glucose-6-phosphate dehydrogenase, with 5 mM glucose-6-phosphate as substrate, served as a NADPH-regenerating system.
For WT P450scc (noted “SA4”, SEQ ID NO: 4) and P450scc-I1A-K193E (noted “SA6”, SEQ ID NO: 6) the concentrations of CYP11A1, Adx and AdR were of 1 μM, 20 μM and 0.5 μM, and for P450scc-R225T-N289D (noted “SA1”, SEQ ID NO: 1) the concentrations of CYP11A1, Adx and AdR were of 0.25 μM, 5 μM and 0.125 μM, respectively.
The samples were pre-warmed to 37° C. and the reaction was started by addition of NADPH to a final concentration of 100 μM. The mixtures were incubated at 37° C. with agitation for 30 s. The reaction was stopped by boiling the samples in water for 30 s.
To allow photometric detection at 240 nm, the steroids were converted into their 3-keto-Δ4 derivatives using a cholesterol oxidase from Nocardia spec.
20 μl of a cholesterol oxidase solution (5 mg cholesterol oxidase and 5 mg Na-cholate dissolved in 5 ml of 50 mM HEPES buffer pH 7, containing 0.05% Tween-20) were added to the samples. After incubation at 37° C. for 1 h, 11-deoxycorticosterone (DOC) was added to the reaction mixtures as an internal standard, followed by a 2-times extraction with equal volumes of ethylacetate. After evaporation, the extracts were dissolved in acetonitrile/water.
After acute evaluation of the concentration of each P450scc preparation, SA1, SA4 and SA6 were used in the following in vitro assays. Each of these isoforms was reconstituted at a concentration of 1 μM in the presence of cholesterol as a substrate (20 μM) in saturating amounts of Adx and AdR.

cholesterol [2] = test: In vivo conversion of cholesterol into pregnenolone by recombinant Bacillus megaterium expressing the P450scc polypeptide; assay type: cell-based; conditions: 300 μM cholesterol, Bacillus megaterium MS941, assessed after 24 h and 48 h (FIGS. 3 and 4)

| Molecule | activity compared to SA4 and SA6 (in vitro conversion of cholesterol) (cholesterol [1]; 37° C., 30 s, HPLC (FIG. 1)) | in vivo cholesterol conversion activity compared to SA6 (cholesterol [2]) | activity, SA4 compared with SA6 (in vitro conversion of cholesterol) (cholesterol [1]) |
| --- | --- | --- | --- |
| B1 | 2-3 fold | 2 fold | – |
| B2 | – | – | identical activity |
| B3 | – | – | identical activity |
